test system: Escherichia coli TOP10; test: shrunken log2 fold change of peptide-encoding DNA abundance (4.5 h post-induction vs induction); higher = less antimicrobial activity (less host growth inhibition); conditions: time post-induction: 4.5 h; library: site-saturation at positions 5, 18, 19, 20
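Note: peptides expressed intracellularly from a pBAD plasmid library in pooled LB shake-flask culture, induced with 0.3% L-arabinose, DNA abundance read by NGS, three biological replicates, DESeq2 with apeglm shrinkage.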

Sequence	shrunken log2 fold change
RRIRDRPPRLPRPRPRPGMFPRP	0.00675
RRIRWRPPRLPRPRPRPLDFPRP	0.0518
RRIRTRPPRLPRPRPRPYHQPRP	-0.182
RRIRIRPPRLPRPRPRPDHIPRP	-0.0811
RRIRARPPRLPRPRPRPYCPPRP	-0.585
RRIRMRPPRLPRPRPRPSTNPRP	0.0712
RRIRCRPPRLPRPRPRPWQYPRP	0.0686
RRIRLRPPRLPRPRPRPGFPPRP	-0.2
RRIRDRPPRLPRPRPRPFMWPRP	-0.102
RRIRERPPRLPRPRPRPRHEPRP	-0.304
RRIRKRPPRLPRPRPRPKHVPRP	0.473
RRIRLRPPRLPRPRPRPGFTPRP	-0.191
RRIRIRPPRLPRPRPRPDHVPRP	-0.23
RRIRVRPPRLPRPRPRPLDTPRP	-0.257
RRIRHRPPRLPRPRPRPFEAPRP	-0.214
RRIRNRPPRLPRPRPRPGYGPRP	-0.0142
RRIRYRPPRLPRPRPRPNKRPRP	-0.75
RRIRWRPPRLPRPRPRPIKVPRP	-0.146
RRIRVRPPRLPRPRPRPPMCPRP	0.0598
RRIRVRPPRLPRPRPRPDQPPRP	0.166
RRIRYRPPRLPRPRPRPCPPPRP	-0.839
RRIRERPPRLPRPRPRPTCHPRP	-0.186
RRIRPRPPRLPRPRPRPPIMPRP	-0.0982
RRIRYRPPRLPRPRPRPSINPRP	-0.39
RRIRYRPPRLPRPRPRPYKFPRP	-0.0196

Sequence	shrunken log2 fold change
RRIRKRPPRLPRPRPRPVAQPRP	0.541
RRIRPRPPRLPRPRPRPLMDPRP	-0.145
RRIRFRPPRLPRPRPRPAIQPRP	-0.102
RRIRMRPPRLPRPRPRPYTMPRP	-0.06
RRIRYRPPRLPRPRPRPVWSPRP	-0.337
RRIRHRPPRLPRPRPRPVPMPRP	0.0504
RRIRLRPPRLPRPRPRPWHGPRP	-0.109
RRIRRRPPRLPRPRPRPGFVPRP	0.423
RRIRERPPRLPRPRPRPFINPRP	-0.991
RRIRDRPPRLPRPRPRPGPIPRP	-0.0864
RRIRTRPPRLPRPRPRPRARPRP	0.63
RRIRLRPPRLPRPRPRPCQAPRP	0.0641
RRIRKRPPRLPRPRPRPWFNPRP	-0.209
RRIRMRPPRLPRPRPRPQNQPRP	-0.183
RRIRLRPPRLPRPRPRPKWEPRP	-0.00197
RRIRIRPPRLPRPRPRPHIGPRP	-0.17
RRIRMRPPRLPRPRPRPVDHPRP	-0.0711
RRIRDRPPRLPRPRPRPGGMPRP	0.0874
RRIRYRPPRLPRPRPRPGEYPRP	-0.0574
RRIRMRPPRLPRPRPRPQGRPRP	0.113
RRIRSRPPRLPRPRPRPRREPRP	0.416
RRIRPRPPRLPRPRPRPWQDPRP	0.115
RRIRSRPPRLPRPRPRPVNFPRP	-0.262
RRIRCRPPRLPRPRPRPWRNPRP	-0.157
RRIRMRPPRLPRPRPRPFTAPRP	0.245

Sequence	shrunken log2 fold change
RRIRARPPRLPRPRPRPEHGPRP	0.0464
RRIRIRPPRLPRPRPRPGVYPRP	-0.39
RRIRCRPPRLPRPRPRPCPEPRP	1.16
RRIRHRPPRLPRPRPRPPIRPRP	0.309
RRIRIRPPRLPRPRPRPWEDPRP	-0.202
RRIRQRPPRLPRPRPRPNKGPRP	-0.0896
RRIRIRPPRLPRPRPRPCKPPRP	-0.19
RRIRLRPPRLPRPRPRPAAAPRP	1.04
RRIRPRPPRLPRPRPRPDDAPRP	-0.0674
RRIRWRPPRLPRPRPRPNSLPRP	-0.123
RRIRSRPPRLPRPRPRPDRCPRP	-0.115
RRIRVRPPRLPRPRPRPWCKPRP	0.0335
RRIRVRPPRLPRPRPRPTRTPRP	0.495
RRIRMRPPRLPRPRPRPPTRPRP	1.25
RRIRQRPPRLPRPRPRPQPRPRP	0.48
RRIRVRPPRLPRPRPRPCRNPRP	-0.0211
RRIRNRPPRLPRPRPRPLQWPRP	0.0683
RRIRERPPRLPRPRPRPSKHPRP	-0.775
RRIRHRPPRLPRPRPRPVGNPRP	0.0182
RRIRVRPPRLPRPRPRPQWIPRP	-0.895
RRIRVRPPRLPRPRPRPHHHPRP	-0.611
RRIRCRPPRLPRPRPRPCFCPRP	-0.367
RRIRCRPPRLPRPRPRPRKRPRP	0.456
RRIRQRPPRLPRPRPRPMFIPRP	-0.129
RRIRVRPPRLPRPRPRPMPYPRP	0.122

Sequence	shrunken log2 fold change
RRIRRRPPRLPRPRPRPWAQPRP	0.882
RRIRFRPPRLPRPRPRPTIQPRP	-0.266
RRIRLRPPRLPRPRPRPDPDPRP	-0.0677
RRIRNRPPRLPRPRPRPEEEPRP	-0.00134
RRIRARPPRLPRPRPRPEPCPRP	0.126
RRIRCRPPRLPRPRPRPKLAPRP	0.551
RRIRHRPPRLPRPRPRPCREPRP	0.0163
RRIRMRPPRLPRPRPRPYRTPRP	0.0313
RRIRTRPPRLPRPRPRPHIFPRP	2.13
RRIRARPPRLPRPRPRPSMWPRP	0.45
RRIRQRPPRLPRPRPRPRKNPRP	0.309
RRIRQRPPRLPRPRPRPCREPRP	-0.0541
RRIRMRPPRLPRPRPRPGVWPRP	0.723
RRIRSRPPRLPRPRPRPKTCPRP	-0.0741
RRIRHRPPRLPRPRPRPGNYPRP	0.113
RRIRSRPPRLPRPRPRPIHRPRP	-0.172
RRIRGRPPRLPRPRPRPKMMPRP	0.345
RRIRSRPPRLPRPRPRPTHEPRP	-0.0435
RRIRWRPPRLPRPRPRPNMLPRP	0.0876
RRIRSRPPRLPRPRPRPWAWPRP	-0.131
RRIRIRPPRLPRPRPRPRSSPRP	0.152
RRIRGRPPRLPRPRPRPWIFPRP	0.224
RRIRHRPPRLPRPRPRPCVWPRP	0.0245
RRIRERPPRLPRPRPRPRSYPRP	-0.0497
RRIRHRPPRLPRPRPRPVCYPRP	-0.663

Sequence	shrunken log2 fold change
RRIRPRPPRLPRPRPRPQFRPRP	-0.0113
RRIRPRPPRLPRPRPRPRRAPRP	0.525
RRIRQRPPRLPRPRPRPTAEPRP	0.363
RRIRFRPPRLPRPRPRPTISPRP	-0.611
RRIRYRPPRLPRPRPRPIDIPRP	-0.0256
RRIRDRPPRLPRPRPRPLLEPRP	0.31
RRIRVRPPRLPRPRPRPLGWPRP	0.467
RRIRVRPPRLPRPRPRPVNRPRP	-0.142
RRIRQRPPRLPRPRPRPTCTPRP	-0.0329
RRIRMRPPRLPRPRPRPDDSPRP	0.175
RRIRDRPPRLPRPRPRPCQLPRP	-0.0273
RRIRWRPPRLPRPRPRPEWVPRP	0.927
RRIRNRPPRLPRPRPRPRGCPRP	0.366
RRIRWRPPRLPRPRPRPNVHPRP	0.0272
RRIRCRPPRLPRPRPRPTAHPRP	0.181
RRIRIRPPRLPRPRPRPQQAPRP	0.0151
RRIRWRPPRLPRPRPRPGKSPRP	0.0772
RRIRRRPPRLPRPRPRPLEFPRP	-0.0524
RRIRFRPPRLPRPRPRPPIMPRP	-0.451
RRIRIRPPRLPRPRPRPSCCPRP	-0.471
RRIRQRPPRLPRPRPRPEGAPRP	0.852
RRIRDRPPRLPRPRPRPMYKPRP	-0.363
RRIRSRPPRLPRPRPRPQMDPRP	-0.0665
RRIRVRPPRLPRPRPRPLGLPRP	0.122
RRIRWRPPRLPRPRPRPEVIPRP	0.0286

From the supplement of paper PMC9112550, “Optimization of the antimicrobial peptide Bac7 by deep mutational scanning” (BMC Biology, 2022)
